Assay results taken from a protein production outcome set (Wang et al. 2014).

Test: label from the status in PepcDB records

Sequence | protein production
MRTVPSLSMSKSRCNMLASTLDRPSPEDSQTLAEVERTITSGVGALCFSRGLERRYQTETRLQRREFLTAMGIGGSLIYNLFLITDWLILRDVFVYVAIGRLCLITPMFIIMLILARRLASRRAMETTAAVATVLCSLMPMVVMTYSESPYQIFYQLGMLLIMVYCTMIQQLPLRHAAAALSCMLIIQLVTTYIADFADFVIWQANALLFVSTVMLLLMASYFLERASRLSYLFALRGRLLQVQLLEFARTDALTRLFNRRYQDEVLTSVWERARKKQANVAIILLDIDHFKSYNDNYGHPQGDVCLKLLCKAIQQSANDGGAVAFRFGGEEVLVLMNADADQATKMAETLKATVAALKLPHPALGEDAHVTISLGVASGIAPLITYDTLISAADNALYAAKHAGRNCVFCQP | failed
MRVAVAGGTGLVGKYVVAELRAAGHTPVVLARSHGVDLTTGAGLAGKLSGSDAVIDVANIVTTRRKTAVDFFSRTTGHLIAAARAGGVAHLVTLSIVGSDEVDFGYYFGKRAQEELVRDGAVPWTVVRATQFFEFPEPLLNGVSPVVVVPRMLTRPVAAQDVAQTLVEHAVEGPAGMAPEIAGPDQLDMVDMARRIARARGSRRLVVPVTLPGKVGKAMTTGGLLPRGEYLRGRRTFDAHLASLRAA | failed
MRVDGLNGRPHSHWVINKVIGDSTMTFSNAQRLRPVRRHAIFQACALGFALALASGSAFAAAALTQPAQDPAKVAPASLAVSKIDFKRGEDGTGRLILQFNGQGASPDLRTQGDNVLVDISNARLPAELQRPLNVTDFATPVQRVEVKPSGSGSQLVLSTKGAFDSLAYQTGNEYVVEITPRKGQPAVGGVSPAAVTQAAAQIAARGYSGRPVTFNFQDVPVRTVLQLIAEESNLNIVASDTVQGNVTLRLMNVPWDQALDIVLRAKGLDKRRDGGVVWVAPQPELAKFEQDKEDARIAIENREDLITDYVQINYHNAAVIFKALTEAKGIGGGGGSGGGQGGQGGAGQQDNGFLSPRGRLVADERTNTLMISDIPKKVAQMRELISHIDRPVDQVLIESRIVIATDTFARDLGARFGIIGATGRGILSGSLDSNTNYLNTSAKRASEIANGGTSTTLPAHLFPSGLNVNLGAGGGFTTNTPGGLAYTLLGSNFNLDIELSAMQQEGRGEVVSNPRIVTANQREGVIKQGREIGYVTISGSGAGGGSQANVQFKEVLLELKVTPTITNDNRVFLNMNVKKDEVARLIDLPLYGTVPEINRREINTAVLVGDGETVVIGGVYEFTDRESVSKVPFLGDIPFLGNLFKKRGRSKEKAELLVFVTPKVLRVASATR | failed
MRVDRSSSSSTVSLLEGKIYVAGGFDPKTHTWSSVTSPSAVIRNESVAEHKSLGLGGKFYLFGYDSDKSAVVYNPKEDNVLFYRFHGLFHWYDYKGNFWKQVNGLGPVACTEKVAILAALDTFDNAR | failed
MRVGVLGAKGKVGATMVRAVAAADDLTLSAELDAGDPLSLLTDGNTEVVIDFTHPDVVMGNLEFLIDNGIHAVVGTTGFTAERFQQVESWLVAKPNTSVLIAPNFAIGAVLSMHFAKQAARFFDSAEVIELHHPHKADAPSGTAARTAKLIAEARKGLPPNPDATSTSLPGARGADVDGIPVHAVRLAGLVAHQEVLFGTEGETLTIRHDSLDRTSFVPGVLLAVRRIAERPGLTVGLEPLLDLH | not failed
MRVISRNLTAWSAGLIVVAIFLGAWLSHPLHRISGFAVTPAPVGTESLPPKASYSSRFASSDLNDFVHSSAVTALPGGDLMSVWFAGSREGAGDVEIRTSRFDAQAEEWGGEQVLATRESTQTGTGKYIRKLGNPVIALAPDNRLWLFYVSVSVGGWAGSSVNAMVSSDMGASWSAPRQLVTSPFLNISTLVRGAPVFHADGSIGLPVYHEFLGKFAEYLYLSADGEVIDKFRISRGKNSLQPTVVPLDGQRAVALLRYAGETFHRVLASRTEDGGQTWSEPYPLAPSNPNSSLAAVGVPGKGLLVALNDLREGRFKLSLYSTDEQMKVWRPLPDLDKSPDPLGTPFSLEVYKEVIGQGFRASSGALRQPMEAEFLSNLDQRVCAPQGCDFEYEYPYFIRSPDGLYHLVYSWNNTFIKHVSFNEAWLAEQLL | failed
MRVIVAYDGSPGADKAVGFALGLKDSIDKYFILYVSRDITDLSGQLVYISDETVEQQERLADEIVNKAKSLMTRSGVDYEVMKVDSNGEDISKVIVKIAQEKGIDVIFTGTRKLRGLDKFFLGSISSGILALSSCPVIVVP | not failed
